This note sets out measurements from paper PMC10092763.

The experiment has as its target PAX2 (UniProt Q02962). Kind of experiment: co-IP, FLAG-PAX2 with HA-AFF4. The note with it: reference: wild type; sites S388.

Regarding AFF4 (from UniProt Q9UHB7) S388A, the “binding against the reference” value is given as “weaker”.
